The text below walks through data of patent publication EP0817650B1.

The target of assay [1] is MHC Class II products on splenic antigen-presenting cells of SJL mice (H-2 s) (mouse). Kind of assay: flow cytometry, inhibition of binding to SJL splenic APC; competitor: biotinylated peptide Ia.
Assay [2] shares this target. Kind of assay: flow cytometry, inhibition of binding to SJL splenic APC; competitor: biotinylated peptide IIIa.
Assay [3] addresses MHC Class II products on splenic antigen-presenting cells of C57BL/6 mice (H-2 b) (mouse) (UniProt P14434). Nature of the assay: flow cytometry, inhibition of binding to C57BL/6 splenic APC; competitor: biotinylated peptide Ia.
Assay [4] has as its target MHC Class II products on splenic antigen-presenting cells of C3H.SW mice (H-2 b) (mouse) (UniProt P14434). Kind of assay: flow cytometry, inhibition of binding to C3H.SW splenic APC; competitor: biotinylated peptide IIIa.
In assay [5] the target is T1, MHC Class II products on splenic antigen-presenting cells of BALB/c mice (H-2 d) (mouse) (UniProt P04228).
T1 sequence (alpha): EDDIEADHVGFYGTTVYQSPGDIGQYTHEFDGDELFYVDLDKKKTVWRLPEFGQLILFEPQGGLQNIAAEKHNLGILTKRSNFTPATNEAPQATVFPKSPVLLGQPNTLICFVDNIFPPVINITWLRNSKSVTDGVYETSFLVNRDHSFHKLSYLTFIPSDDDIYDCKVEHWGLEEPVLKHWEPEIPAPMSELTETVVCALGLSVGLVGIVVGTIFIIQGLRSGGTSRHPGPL
T1 sequence (beta): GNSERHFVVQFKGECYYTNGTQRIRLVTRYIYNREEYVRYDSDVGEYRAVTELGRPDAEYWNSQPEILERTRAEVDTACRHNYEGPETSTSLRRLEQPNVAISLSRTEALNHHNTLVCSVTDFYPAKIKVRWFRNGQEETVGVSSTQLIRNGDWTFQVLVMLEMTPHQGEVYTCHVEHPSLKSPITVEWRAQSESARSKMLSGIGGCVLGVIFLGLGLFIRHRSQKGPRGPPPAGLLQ
Nature of the assay: flow cytometry, inhibition of binding to BALB/c splenic APC; competitor: biotinylated peptide IIIa.

For assay [6], the target named is MHC Class II products on splenic antigen-presenting cells of C3H.SW mice (H-2 b) (mouse) (UniProt P14434). Kind of assay: flow cytometry, inhibition of binding to C3H.SW splenic APC; competitor: biotinylated peptide Ia.
For assay [7], the target named is T1, MHC Class II products on splenic antigen-presenting cells of BALB/c mice (H-2 d) (mouse). Kind of assay: flow cytometry, inhibition of binding to BALB/c splenic APC; competitor: biotinylated peptide Ia.
In assay [8] the target is MHC Class II products on splenic antigen-presenting cells of C57BL/6 mice (H-2 b) (mouse) (UniProt P14434). Kind of assay: flow cytometry, inhibition of binding to C57BL/6 splenic APC; competitor: biotinylated peptide IIIa.

On to 10.3.6.2 (anti-I-A^s) (antibody), for which the %inhibition in assay [1] is 100%; in assay [2], 92.8%.

For “34-5-3 (anti-I-A^b, Pharmingen) (antibody)”, the %inhibition is 82% in assay [3]; 84.4% in assay [4]; 0% in assay [5]; 60% in assay [6]; 0% in assay [7]; 59.3% in assay [8].

Turning to “MKD6 (anti-I-A^d, Beckton-Dickinson) (antibody)”, the %inhibition stood at 0% in assay [3]; 25% in assay [4]; 100% in assay [5]; 0% in assay [6]; 76.7% in assay [7]; 0% in assay [1]. Besides, the %inhibition in assay [2] and in assay [8] was 0% each time.
